Source: patent publication US20220251236A1 (Boehringer Ingelheim, published 2022)

How the values were obtained:
[1] = target: T1, FLAG-tagged human DLL4 full length (human, UniProt Q9NR61 1-685); assay: flow cytometry on HEK293 cells expressing human DLL4 (HEK293-huDLL4), PE anti-human secondary, control: secondary antibody only
T1 construct: also called human DLL4 on HEK293 cells
Procedure: (§1) Bound molecules were detected with PE-conjugated anti-human secondary antibody (Sigma-Aldrich, #P8047). As negative control, cells were incubated with secondary antibody only. The samples were measured by flow-cytometry.

[2] = target: T2, human DLL3 (endogenous, on SCLC cell lines NCI-H82 and SHP77 and in SCLC tissue) (human, UniProt Q9NYJ7 27-618); assay: flow cytometry titration on SHP77 cells, PE anti-human secondary, x-fold over background
T2 construct: whole, on cells; also called SCLC cell lines expressing DLL3
T2 sequence (looked up): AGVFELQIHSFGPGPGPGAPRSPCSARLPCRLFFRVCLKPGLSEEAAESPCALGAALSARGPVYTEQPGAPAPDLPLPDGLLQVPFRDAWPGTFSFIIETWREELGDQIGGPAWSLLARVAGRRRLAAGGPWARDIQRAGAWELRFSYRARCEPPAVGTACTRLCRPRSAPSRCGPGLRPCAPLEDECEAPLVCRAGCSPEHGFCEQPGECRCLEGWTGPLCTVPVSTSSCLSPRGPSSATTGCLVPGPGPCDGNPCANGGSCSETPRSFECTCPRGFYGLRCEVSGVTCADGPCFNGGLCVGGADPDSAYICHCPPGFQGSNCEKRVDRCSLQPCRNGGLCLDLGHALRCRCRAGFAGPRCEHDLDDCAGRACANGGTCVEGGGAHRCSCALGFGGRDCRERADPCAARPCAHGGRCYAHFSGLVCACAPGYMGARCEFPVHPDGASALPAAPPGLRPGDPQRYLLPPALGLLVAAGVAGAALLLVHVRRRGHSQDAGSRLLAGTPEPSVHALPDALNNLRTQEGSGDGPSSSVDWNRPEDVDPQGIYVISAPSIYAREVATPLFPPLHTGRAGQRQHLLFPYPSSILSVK
From the text: Cells (T cells or human SCLC cells) were stained with increasing concentrations of two-step purified DLL3/CD3 binding proteins with increasing concentrations in FACS buffer (PBS/0.5% BSA/0.05% sodium azide). Bound molecules were detected with PE-conjugated anti-human secondary antibody (Sigma-Aldrich, #P8047).

[3] = target: T3, trypsin inhibitor from glycine max soybean (Glycine max (soybean)); assay: SPR (Biacore T200), trypsin inhibitor on CM5 chip, sample at 1 µM
T3 construct: also called Tryp
From the text: To prepare the surface for the non-specific binding experiment, chicken egg white lysozyme and trypsin inhibitor from glycine max soybean were coupled manually to a series S CM5 chip with the surface density of 3000-5000 RU using the amine coupling kit according to the manufacture instructions.

[4] = target: T4, FLAG-tagged human DLL1 full length (human, UniProt O00548 1-723); assay: flow cytometry on HEK293 cells expressing human DLL1 (HEK293-huDLL1), PE anti-human secondary, control: secondary antibody only
T4 construct: also called human DLL1 on HEK293 cells
T4 sequence: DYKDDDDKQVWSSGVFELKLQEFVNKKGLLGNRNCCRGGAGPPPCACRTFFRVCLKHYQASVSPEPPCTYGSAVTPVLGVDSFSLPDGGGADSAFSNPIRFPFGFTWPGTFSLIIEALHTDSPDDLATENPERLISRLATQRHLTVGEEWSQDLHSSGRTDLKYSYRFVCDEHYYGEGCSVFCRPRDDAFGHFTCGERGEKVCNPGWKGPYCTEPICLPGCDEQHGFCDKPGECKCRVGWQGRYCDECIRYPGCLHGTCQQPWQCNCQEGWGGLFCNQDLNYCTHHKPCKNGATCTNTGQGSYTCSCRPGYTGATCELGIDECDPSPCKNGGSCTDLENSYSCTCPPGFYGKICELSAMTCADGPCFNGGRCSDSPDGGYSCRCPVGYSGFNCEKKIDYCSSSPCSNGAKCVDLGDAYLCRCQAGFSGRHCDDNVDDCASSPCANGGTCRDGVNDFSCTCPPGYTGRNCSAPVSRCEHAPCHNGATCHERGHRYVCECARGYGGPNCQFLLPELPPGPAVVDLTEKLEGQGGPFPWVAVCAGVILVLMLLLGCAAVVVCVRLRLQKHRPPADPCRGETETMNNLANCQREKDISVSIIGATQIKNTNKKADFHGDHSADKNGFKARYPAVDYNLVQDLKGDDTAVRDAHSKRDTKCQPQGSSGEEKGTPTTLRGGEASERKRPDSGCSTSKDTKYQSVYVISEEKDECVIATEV
Procedure: as §1

Human CD3 E+G HuFc-6xHis = target: T5, Human CD3 E+G HuFc-6xHis (human); assay: SPR (ProteOn XPR36), HuCD3E_HuCD3G-Fc amine-coupled, bispecific as analyte, Example 4B
T5 construct: also called hu CD3εγ-Fc
Outline: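 SPR kinetics with the bispecific constructs flowed as analyte over a directly amine-coupled (pH 4.5 acetate) human CD3εγ-Fc surface. Association runs 600 s and dissociation 1800 s, at 30 μl/min in PBS-T-EDTA.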

EGF4+5 = target: T6, EGF4+5; assay: flow cytometry on HEK293 cells expressing the DLL3 subdomain construct, PE anti-human secondary, control: secondary antibody only
T6 construct: also called Hu DLL3 EGF4+5 on HEK293 cells
T6 membrane-anchored DLL3 subdomain construct: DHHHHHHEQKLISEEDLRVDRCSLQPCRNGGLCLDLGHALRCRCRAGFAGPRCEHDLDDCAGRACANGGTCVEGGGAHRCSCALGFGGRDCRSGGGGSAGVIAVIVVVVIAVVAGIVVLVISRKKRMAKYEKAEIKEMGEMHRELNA
Outline: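 Binders tested on HEK293 cells displaying the DLL3 subdomain construct; bound molecules detected by flow cytometry using PE-conjugated anti-human secondary antibody. Negative control: cells with secondary antibody only.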

T1 sequence (Q9NR61 other isoform, or with tags, fused parts or gaps limits assumed): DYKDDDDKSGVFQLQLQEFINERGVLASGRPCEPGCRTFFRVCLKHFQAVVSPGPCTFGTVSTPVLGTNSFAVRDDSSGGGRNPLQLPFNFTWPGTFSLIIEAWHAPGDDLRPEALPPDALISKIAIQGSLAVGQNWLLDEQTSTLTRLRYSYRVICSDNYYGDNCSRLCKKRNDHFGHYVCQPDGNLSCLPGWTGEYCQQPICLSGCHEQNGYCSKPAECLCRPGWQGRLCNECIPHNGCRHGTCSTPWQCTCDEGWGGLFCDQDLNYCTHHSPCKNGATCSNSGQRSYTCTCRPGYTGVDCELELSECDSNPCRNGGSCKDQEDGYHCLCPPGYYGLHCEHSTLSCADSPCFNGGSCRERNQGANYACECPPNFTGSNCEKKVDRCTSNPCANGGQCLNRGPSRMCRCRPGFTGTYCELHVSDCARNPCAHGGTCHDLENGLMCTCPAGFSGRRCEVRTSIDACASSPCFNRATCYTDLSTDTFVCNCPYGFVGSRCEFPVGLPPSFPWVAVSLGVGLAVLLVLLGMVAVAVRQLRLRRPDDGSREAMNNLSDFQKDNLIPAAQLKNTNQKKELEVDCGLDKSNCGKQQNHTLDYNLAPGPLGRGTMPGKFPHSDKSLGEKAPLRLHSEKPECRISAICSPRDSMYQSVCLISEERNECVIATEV
T5 sequence (chain, as listed by the source limits assumed): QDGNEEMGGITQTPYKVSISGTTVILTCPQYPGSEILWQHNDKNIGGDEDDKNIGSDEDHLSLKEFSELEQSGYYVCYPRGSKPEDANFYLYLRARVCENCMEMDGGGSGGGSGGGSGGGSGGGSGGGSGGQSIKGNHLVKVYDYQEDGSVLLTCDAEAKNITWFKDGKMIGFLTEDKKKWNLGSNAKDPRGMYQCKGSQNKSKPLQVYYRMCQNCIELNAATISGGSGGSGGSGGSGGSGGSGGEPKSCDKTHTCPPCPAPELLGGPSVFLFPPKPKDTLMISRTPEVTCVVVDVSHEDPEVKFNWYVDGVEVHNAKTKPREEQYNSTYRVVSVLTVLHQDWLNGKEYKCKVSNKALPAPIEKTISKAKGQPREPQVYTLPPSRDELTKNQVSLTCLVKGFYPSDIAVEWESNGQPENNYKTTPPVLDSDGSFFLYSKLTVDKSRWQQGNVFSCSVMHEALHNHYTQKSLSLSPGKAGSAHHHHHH
T3 sequence (P01070 25-205): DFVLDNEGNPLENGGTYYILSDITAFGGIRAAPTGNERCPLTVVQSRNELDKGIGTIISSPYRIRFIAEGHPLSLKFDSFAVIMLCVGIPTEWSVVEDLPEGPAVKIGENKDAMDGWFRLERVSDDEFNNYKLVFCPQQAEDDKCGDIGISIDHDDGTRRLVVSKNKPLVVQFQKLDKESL

B1: DLL3#6/CD3#1 (bispecific antibody, human IgG1, kappa, lambda, L234A L235A)
chain 1: DIQLTQSPSFLSTSVGDRVTITCRASQDISNYFAWYQQKPGKAPKLLIYAASTLQSGVPSRFSGGGSGTEFTLTISSLQPEDFATYYCQQLNSYPYTFGQGTKLEIKRTVAAPSVFIFPPSDEQLKSGTASVVCLLNNFYPREAKVQWKVDNALQSGNSQESVTEQDSKDSTYSLSSTLTLSKADYEKHKVYACEVTHQGLSSPVTKSFNRGECGGGGSEGKSSGSGSESKSTEGKSSGSGSESKSTGGGGSQVQLQESGPGLVKPSETLSLTCTVSGGSISSYFWSWIRQPAGKGLEWIGRIYTSGSTNYNPSLNSRLTMSVDTSKNQFSLKLSSVTAADTAVYYCARRGDWGGFDIWGQGTVVTVSSASTKGPSVFPLAPSSKSTSGGTAALGCLVKDYFPEPVTVSWNSGALTSGVHTFPAVLQSSGLYSLSSVVTVPSSSLGTQTYICNVNHKPSNTKVDKRVEPKSCDKTHTCPPCPAPEAAGGPSVFLFPPKPKDTLMISRTPEVTCVVVDVSHEDPEVKFNWYVDGVEVHNAKTKPREEQYNSTYRVVSVLTVLHQDWLNGKEYKCKVSNKALPAPIEKTISKAKGQPREPQVYTLPPSREEMTKNQVSLWCLVKGFYPSDIAVEWESNGQPENNYKTTPPVLDSDGSFFLYSKLTVDKSRWQQGNVFSCSVMHEALHNHYTQKSLSLSPG
chain 2: EAVVTQEPSLTVSPGGTVTLTCRSSTGAVTTSNYANWVQEKPGQLPRGLIGGTNKRAPWVPARFSGSLLGGKAALTLSGAQPEDEAEYFCALWYSNLWVFGGGTKLTVLGQPKAAPSVTLFPPSSEELQANKATLVCLISDFYPGAVKVAWKADGSPVNTGVETTTPSKQSNNKYAASSYLSLTPEQWKSHRSYSCQVTHEGSTVEKTVAPAECSGGGGSEGKSSGSGSESKSTEGKSSGSGSESKSTGGGGSEVQLVESGGGLVQPGGSLKLSCAASGFTFNTYAMNWVRQAPGKGLEWVARIRSKYNNYATYYADSVKDRFTISRDDSKNTAYLQMNNLKTEDTAVYYCVRHGNFGNSYVSWFAYWGQGTLVTVSAASTKGPSVFPLAPSSKSTSGGTAALGCLVKDYFPEPVTVSWNSGALTSGVHTFPAVLQSSGLYSLSSVVTVPSSSLGTQTYICNVNHKPSNTKVDKRVEPKSCDKTHTCPPCPAPEAAGGPSVFLFPPKPKDTLMISRTPEVTCVVVDVSHEDPEVKFNWYVDGVEVHNAKTKPREEQYNSTYRVVSVLTVLHQDWLNGKEYKCKVSNKALPAPIEKTISKAKGQPREPQVYTLPPSREEMTKNQVSLSCAVKGFYPSDIAVEWESNGQPENNYKTTPPVLDSDGSFFLVSKLTVDKSRWQQGNVFSCSVMHEALHNRFTQKSLSLSPG
notes: Heterodimer of one DLL3 chain and one CD3 chain (scFab-Fc, knob-in-hole)
[1]
  binding result: no binding (tested: 1.6 nM)
[2]
  EC50 (read off the curve): ~2 nM
[3]
  Non-specific binding (RU): 0 RU
[4]
  binding result: no binding (tested: 1.6 nM)
Human CD3 E+G HuFc-6xHis
  Kd: 2 nM
EGF4+5
  binding result: no binding (tested: 1.6 nM)
